Our source for the Kd values is doi:10.1101/2021.08.30.21262666.

Test in all cases: SPR
Assay [1] addresses AZD1061 (cilgavimab) (human).
The target in assay [2] is AZD8895 (tixagevimab) (human).
For a further assay, the target named is AZD1061-TM (human).
Another assay concerns the target AZD8895-TM (human).

As usually defined, the Kd is the concentration at which binding is half-saturated. High values mean a looser complex, low ones a tighter complex. Consider “human neonatal Fc receptor (from UniProt P55899;P61769)”, for which the Kd amounted to 283 nM in assay [1], 272 nM in assay [2], 2360 nM with AZD1061-TM (human) and 2400 nM with AZD8895-TM (human).
